Data on 30 molecules can be found in patent US20240132624A1 (Ablynx, published 2024).

B1: T026301127 (VHH, name in Kabat numbering)
VHH: EVQLVESGGGVVQPGGSLRLSCAASTFTFSEYDMYWVRQAPGKGLEWVSAISSGGGSTDYADSVKGRFTISRDNSKNTLYLQMNSLRPEDTALYYCAADTLYTSLTSYSYWGQGTLVTVSS
notes: tagless
B2: T026301128 (VHH, name in Kabat numbering)
VHH: EVQLVESGGGVVQPGGSLRLSCAASGFTFSSYAMYWVRQAPGKGLEWVSAISQGGGSTDYADSVKGRFTISRDNSKNTLYLQMNSLRPEDTALYYCAADTLYTDLTKYSYWGQGTLVTVSS
notes: tagless
B3: T026301057 (VHH, name in Kabat numbering)
VHH: EVQLVESGGGVVQPGGSLRLSCAASGFTFSEYAMYWVRQAPGKGLEWVSAISQGGGSTDYADSVKGRFTISRDNSKNTLYLQMNSLRPEDTALYYCAADTLYTSLTSYSYWGQGTLVTVSS
notes: tagless
B4: T026301099 (VHH, name in Kabat numbering)
VHH: EVQLVESGGGVVQPGGSLRLSCAASGFTFSEYDMYWVRQAPGKGLEWVSAISSGGGSTDYADSVKGRFTISRDNSKNTLYLQMNSLRPEDTALYYCAADTLYTSLTWYSYWGQGTLVTVSS
notes: tagless
B5: T026301069 (VHH, name in Kabat numbering)
VHH: EVQLVESGGGVVQPGGSLRLSCAASGFTFSSYDMYWVRQAPGKGLEWVSAISQGGGSTDYADSVKGRFTISRDNSKNTLYLQMNSLRPEDTALYYCAADTLYTSLTSYSYWGQGTLVTVSS
notes: tagless
B6: T026301049 (VHH, name in Kabat numbering)
VHH: EVQLVESGGGVVQPGGSLRLSCAASTFTFSEYDMYWVRQAPGKGLEWVSAISSGGGSTDYADSVKGRFTISRDNSKNTLYLQMNSLRPEDTALYYCAADTLYTDLTWYSYWGQGTLVTVSS
notes: tagless
B7: T026301106 (VHH, name in Kabat numbering)
VHH: EVQLVESGGGVVQPGGSLRLSCAASTFTFSSYDMYWVRQAPGKGLEWVSAISQGGGSTDYADSVKGRFTISRDNSKNTLYLQMNSLRPEDTALYYCAADTLYTDLTSYSYWGQGTLVTVSS
notes: tagless
B8: T026301062 (VHH, name in Kabat numbering)
VHH: EVQLVESGGGVVQPGGSLRLSCAASTFTFSSYDMYWVRQAPGKGLEWVSAISSGGGSTDYADSVKGRFTISRDNSKNTLYLQMNSLRPEDTALYYCAADTLYTDLTWYSYWGQGTLVTVSS
notes: tagless
B9: T026301056 (VHH, name in Kabat numbering)
VHH: EVQLVESGGGVVQPGGSLRLSCAASTFTFSEYDMYWVRQAPGKGLEWVSAISQGGGSTDYADSVKGRFTISRDNSKNTLYLQMNSLRPEDTALYYCAADTLYTDLTKYSYWGQGTLVTVSS
notes: tagless
B10: T026301093 (VHH, name in Kabat numbering)
VHH: EVQLVESGGGVVQPGGSLRLSCAASTFTFSSYDMYWVRQAPGKGLEWVSAISSGGGSTDYADSVKGRFTISRDNSKNTLYLQMNSLRPEDTALYYCAADTLYTSLTSYSYWGQGTLVTVSS
notes: tagless
B11: T026301104 (VHH, name in Kabat numbering)
VHH: EVQLVESGGGVVQPGGSLRLSCAASGFTFSEYAMYWVRQAPGKGLEWVSAISQGGGSTDYADSVKGRFTISRDNSKNTLYLQMNSLRPEDTALYYCAADTLYTDLTKYSYWGQGTLVTVSS
notes: tagless
B12: T026301092 (VHH, name in Kabat numbering)
VHH: EVQLVESGGGVVQPGGSLRLSCAASGFTFSSYDMYWVRQAPGKGLEWVSAISSGGGSTDYADSVKGRFTISRDNSKNTLYLQMNSLRPEDTALYYCAADTLYTDLTKYSYWGQGTLVTVSS
notes: tagless
B13: T026301131 (VHH, name in Kabat numbering)
VHH: EVQLVESGGGVVQPGGSLRLSCAASTFTFSSYDMYWVRQAPGKGLEWVSAISSGGGSTDYADSVKGRFTISRDNSKNTLYLQMNSLRPEDTALYYCAADTLYTDLTSYSYWGQGTLVTVSS
notes: tagless
B14: T026301108 (VHH, name in Kabat numbering)
VHH: EVQLVESGGGVVQPGGSLRLSCAASTFTFSEYAMYWVRQAPGKGLEWVSAISQGGGSTDYADSVKGRFTISRDNSKNTLYLQMNSLRPEDTALYYCAADTLYTDLTSYSYWGQGTLVTVSS
notes: tagless
B15: T026301129 (VHH, name in Kabat numbering)
VHH: EVQLVESGGGVVQPGGSLRLSCAASGFTFSEYDMYWVRQAPGKGLEWVSAISQGGGSTDYADSVKGRFTISRDNSKNTLYLQMNSLRPEDTALYYCAADTLYTDLTKYSYWGQGTLVTVSS
notes: tagless
B16: T026301114 (VHH, name in Kabat numbering)
VHH: EVQLVESGGGVVQPGGSLRLSCAASTFTFSEYAMYWVRQAPGKGLEWVSAISSGGGSTDYADSVKGRFTISRDNSKNTLYLQMNSLRPEDTALYYCAADTLYTDLTKYSYWGQGTLVTVSS
notes: tagless
B17: T026301095 (VHH, name in Kabat numbering)
VHH: EVQLVESGGGVVQPGGSLRLSCAASGFTFSEYDMYWVRQAPGKGLEWVSAISSGGGSTDYADSVKGRFTISRDNSKNTLYLQMNSLRPEDTALYYCAADTLYTDLTSYSYWGQGTLVTVSS
notes: tagless
B18: T026301130 (VHH, name in Kabat numbering)
VHH: EVQLVESGGGVVQPGGSLRLSCAASTFTFSEYDMYWVRQAPGKGLEWVSAISSGGGSTDYADSVKGRFTISRDNSKNTLYLQMNSLRPEDTALYYCAADTLYTDLTSYSYWGQGTLVTVSS
notes: tagless
B19: T026301065 (VHH, name in Kabat numbering)
VHH: EVQLVESGGGVVQPGGSLRLSCAASTFTFSEYDMYWVRQAPGKGLEWVSAISQGGGSTDYADSVKGRFTISRDNSKNTLYLQMNSLRPEDTALYYCAADTLYTDLTWYSYWGQGTLVTVSS
notes: tagless
B20: T026301116 (VHH, name in Kabat numbering)
VHH: EVQLVESGGGVVQPGGSLRLSCAASGFTFSEYDMYWVRQAPGKGLEWVSAISSGGGSTDYADSVKGRFTISRDNSKNTLYLQMNSLRPEDTALYYCAADTLYTDLTKYSYWGQGTLVTVSS
notes: tagless
B21: T026301055 (VHH, name in Kabat numbering)
VHH: EVQLVESGGGVVQPGGSLRLSCAASTFTFSSYDMYWVRQAPGKGLEWVSAISSGGGSTDYADSVKGRFTISRDNSKNTLYLQMNSLRPEDTALYYCAADTLYTSLTKYSYWGQGTLVTVSS
notes: tagless
B22: T026301066 (VHH, name in Kabat numbering)
VHH: EVQLVESGGGVVQPGGSLRLSCAASGFTFSEYAMYWVRQAPGKGLEWVSAISSGGGSTDYADSVKGRFTISRDNSKNTLYLQMNSLRPEDTALYYCAADTLYTDLTKYSYWGQGTLVTVSS
notes: tagless
B23: T026301077 (VHH, name in Kabat numbering)
VHH: EVQLVESGGGVVQPGGSLRLSCAASTFTFSEYDMYWVRQAPGKGLEWVSAISQGGGSTDYADSVKGRFTISRDNSKNTLYLQMNSLRPEDTALYYCAADTLYTSLTKYSYWGQGTLVTVSS
notes: tagless
B24: T026301101 (VHH, name in Kabat numbering)
VHH: EVQLVESGGGVVQPGGSLRLSCAASTFTFSSYAMYWVRQAPGKGLEWVSAISSGGGSTDYADSVKGRFTISRDNSKNTLYLQMNSLRPEDTALYYCAADTLYTDLTKYSYWGQGTLVTVSS
notes: tagless
B25: T026301053 (VHH, name in Kabat numbering)
VHH: EVQLVESGGGVVQPGGSLRLSCAASTFTFSEYDMYWVRQAPGKGLEWVSAISSGGGSTDYADSVKGRFTISRDNSKNTLYLQMNSLRPEDTALYYCAADTLYTSLTKYSYWGQGTLVTVSS
notes: tagless
B26: T026301115 (VHH, name in Kabat numbering)
VHH: EVQLVESGGGVVQPGGSLRLSCAASTFTFSSYDMYWVRQAPGKGLEWVSAISSGGGSTDYADSVKGRFTISRDNSKNTLYLQMNSLRPEDTALYYCAADTLYTDLTKYSYWGQGTLVTVSS
notes: tagless
B27: T026301068 (VHH, name in Kabat numbering)
VHH: EVQLVESGGGVVQPGGSLRLSCAASGFTFSSYDMYWVRQAPGKGLEWVSAISQGGGSTDYADSVKGRFTISRDNSKNTLYLQMNSLRPEDTALYYCAADTLYTDLTKYSYWGQGTLVTVSS
notes: tagless
B28: T026301118 (VHH, name in Kabat numbering)
VHH: EVQLVESGGGVVQPGGSLRLSCAASGFTFSSYDMYWVRQAPGKGLEWVSAISSGGGSTDYADSVKGRFTISRDNSKNTLYLQMNSLRPEDTALYYCAADTLYTDLTSYSYWGQGTLVTVSS
notes: tagless
B29: T026301120 (VHH, name in Kabat numbering)
VHH: EVQLVESGGGVVQPGGSLRLSCAASTFTFSEYDMYWVRQAPGKGLEWVSAISQGGGSTDYADSVKGRFTISRDNSKNTLYLQMNSLRPEDTALYYCAADTLYTDLTSYSYWGQGTLVTVSS
notes: tagless
B30: T026301058 (VHH, name in Kabat numbering)
VHH: EVQLVESGGGVVQPGGSLRLSCAASTFTFSEYAMYWVRQAPGKGLEWVSAISQGGGSTDYADSVKGRFTISRDNSKNTLYLQMNSLRPEDTALYYCAADTLYTDLTKYSYWGQGTLVTVSS
notes: tagless

T2 sequence (Q8SPV9 24-297 limits assumed, chain 1 of 2): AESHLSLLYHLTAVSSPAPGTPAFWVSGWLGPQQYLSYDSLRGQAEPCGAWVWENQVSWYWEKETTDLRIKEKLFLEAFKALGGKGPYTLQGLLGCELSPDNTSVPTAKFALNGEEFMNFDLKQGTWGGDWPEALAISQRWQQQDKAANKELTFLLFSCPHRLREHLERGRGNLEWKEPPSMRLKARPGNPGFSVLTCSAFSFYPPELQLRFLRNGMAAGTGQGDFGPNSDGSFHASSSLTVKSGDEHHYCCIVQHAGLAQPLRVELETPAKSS
T2 sequence (Q8SPW0 21-119 limits assumed, chain 2 of 2): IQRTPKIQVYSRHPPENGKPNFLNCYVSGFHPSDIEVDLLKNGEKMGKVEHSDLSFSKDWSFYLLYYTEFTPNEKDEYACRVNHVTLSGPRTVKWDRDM

In the first experiment the target is T1, human FcRn/b2M (human, UniProt P61769 21-119, biotinylated).
T1 construct: bought recombinant biotinylated protein (ACRO FCM-H82W4 or Immunitrack ITF01); also called hFcRn; hFcRn/hb2M
T1 sequence (chain, as listed by the source limits assumed, chain 1 of 2): as the sequence (Q8SPV9 24-297 limits assumed, chain 1 of 2) above, with D39N, Q44E, S99G, G189S, N190S, M217L, T269S counted along it
T1 sequence (P61769 21-119 limits assumed, chain 2 of 2): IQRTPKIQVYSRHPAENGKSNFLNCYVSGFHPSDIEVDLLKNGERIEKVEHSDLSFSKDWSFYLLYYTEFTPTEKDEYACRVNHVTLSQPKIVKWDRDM
The experiment in a line: SPR pH 6.0.
By koff is commonly meant the first-order rate constant of dissociation. With B1, the koff was 0.0095 s⁻¹.

On to B2, for which the koff is 0.032 s⁻¹.

B3 registered a koff of 0.016 s⁻¹.

The target of the next experiment is T1, human FcRn/b2M. The experiment in a line: SPR pH 6.0. This is another data set of the same source.
As usually defined, the Kd is a measure of binding affinity in units of concentration. A low value points to tighter binding. As for B3, binding was put at a Kd of 390 nM.

B4 showed a Kd of 30 nM.

The next experiment has as its target T2, cyno FcRn/b2M (cyno, UniProt Q8SPV9 24-297; Q8SPW0 21-119, biotinylated).
T2 construct: bought recombinant biotinylated protein (Immunitrack ITF05 or ACRO FCM-C82W5); also called cFcRn; cFcRn/cb2M
The experiment in a line: SPR pH 6.0.
B3: the Kd came to 260 nM.

Turning to B5, binding was characterised by a dissociation constant (Kd) of 23 nM.

The next experiment deals with T1, human FcRn/b2M. Kind of experiment: SPR off-rate pH 6.0.
Take B6: the binding result is “no binding”.

In the case of B7, the binding result is on record as “no binding”.

Consider B8, for which the binding result was “no binding”.

Turning to B9, the binding result was “no binding”.

Turning to B10, the binding result was “no binding”.

Regarding B11, the binding result is recorded as “no binding”.

For B12, the binding result is on record as “no binding”.

Turning to B13, the binding result was “no binding”.

As to B14, the binding result is listed as “no binding”.

Consider B15, for which the binding result is given as “no binding”.

For the molecule B16, the binding result was “no binding”.

B17: the binding result is listed as “no binding”.

As for B18, the binding result is reported as “no binding”.

On to B19, for which the binding result was “no binding”.

Consider B20, for which the binding result is “no binding”.

As for B21, the binding result was “no binding”.

In the case of B22, the binding result is listed as “no binding”.

With B23, the binding result is recorded as “no binding”.

Turning to B24, the binding result is given as “no binding”.

For B25, the binding result was “no binding”.

For B26, the binding result is “no binding”.

With B27, the binding result is on record as “no binding”.

For B28, the binding result was “no binding”.

As for B29, the binding result was “no binding”.

Regarding B30, the binding result was “no binding”.
